The text below walks through data of PMC11402997.

For the series the following is noted: phosphorylation at S2808.

In the case of “RyR2 (ryanodine receptor type 2): S2808D phosphomimetic”, the other result was “increases”.
Turning to “RyR2 (ryanodine receptor type 2): S2808D phosphomimetic (expressing cells also treated with H2O2; irreversible oxidative modifications retained)”, the structure_or_conformation entry is listed as “changes, RMSD normalized projection = 0.11 (subprimed state)”.
